Data reported in publication PMC7177284, “A Coil-to-Helix Transition Serves as a Binding Motif for hSNF5 and BAF155 Interaction” (International Journal of Molecular Sciences, 2020).

How the values were obtained:
[1] = target: BAF155^SWIRM (SWIRM domain of human BAF155, residues 449–546) (human) (UniProt Q92922); assay: ITC; VP-ITC, 25 °C, 25 mM sodium phosphate, 100 mM NaCl, 1 mM TCEP, pH 7.0; typically 160 µM hSNF5 injected into 10 µM BAF155^SWIRM or mutant in the cell; single-site model
[2] = target: T1, BAF155^SWIRM (SWIRM domain of human BAF155, residues 449–546) (human, UniProt Q92922 449-546); assay: as above; settings: both partners purified
T1 construct: human BAF155, SWIRM domain, residues 449-546; 15N- or 13C,15N-labelled for the NMR experiments; also called BAF155/SRG3; source: E. coli BL21 (DE3), purified (Ni-NTA, TEV cleavage, Superdex 200); not shown: His6, N-terminal, cleaved
T1 sequence (Q92922 449-546): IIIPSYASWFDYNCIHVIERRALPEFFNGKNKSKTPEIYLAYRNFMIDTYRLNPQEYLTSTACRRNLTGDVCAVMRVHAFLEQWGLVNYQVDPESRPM

[3] = target: T1, BAF155^SWIRM (SWIRM domain of human …); assay: as above; settings: both partners purified; remark: listed apart in the source
[4] = target: T2, BAF155^SWIRM N476A/N479A mutant (human, UniProt Q92922 449-546, N476A | N479A); assay: as above; settings: both partners purified
T2 construct: human BAF155, SWIRM domain, residues 449-546, N476A and N479A; PDB 6KZ7 holds the wild-type parent of the same limits; source: E. coli BL21 (DE3), purified (Ni-NTA, TEV cleavage, Superdex 200); not shown: His6, N-terminal, cleaved
T2 sequence (Q92922 449-546 N476A/N479A): as the sequence (Q92922 449-546) above, with N28A, N31A counted along it

[5] = target: T1, BAF155^SWIRM (SWIRM domain of human …); assay: SEC-MALS; Wyatt WTC-030S5 column, 0.5 mL/min, 10 mM HEPES pH 7.0, 100 mM NaCl, 2 mM DTT; hSNF5^171–258 0.2 mM and BAF155^SWIRM 0.3 mM, individually or together; settings: both partners purified

Sequence of BAF155^SWIRM (SWIRM domain of human BAF155, residues 449–546) (human) (Q92922 449-546): as the sequence (Q92922 449-546) above

| Molecule | Kd [2] [nM] | dH [2] [kcal/mol] | also measured |
| --- | --- | --- | --- |
| hSNF5^SFH1/171–253 (chimeric mutant with the N-terminal tail region from the yeast protein SFH1) (from UniProt Q12824 185-253) (domain or fragment) | – | – | Kd [1]: 480 nM; dH [1]: -13.4 kcal/mol |
| hSNF5^186–253 (domain or fragment, human, UniProt Q12824 186-253, looked up, human SNF5 (hSNF5), residues 186-253; source: E. coli BL21 (DE3), purified (Ni-NTA, TEV cleavage, Superdex 200); not shown: His6, N-terminal, cleaved) LVPIRLDMEIDGQKLRDAFTWNMNEKLMTPEMFSEILCDDLDLNPLTFVPAIASAIRQQIESYPTDSI | 760 ± 80 | -16 ± 0.3 | – |
| hSNF5^171–253 (domain or fragment, human, UniProt Q12824 171-253, looked up, source: E. coli BL21 (DE3), purified (Ni-NTA, TEV cleavage, Superdex 200); not shown: His6, N-terminal, cleaved) HDPAVIHENASQPEVLVPIRLDMEIDGQKLRDAFTWNMNEKLMTPEMFSEILCDDLDLNPLTFVPAIASAIRQQIESYPTDSI | 110 ± 20 | -19.7 ± 0.3 | stoichiometry N [3]: 1; Kd [4]: 140 ± 30 nM; dH [4]: -17.7 ± 0.7 kcal/mol |
| hSNF5^171–253 with the E184A mutation (domain or fragment, human, UniProt Q12824 171-253, looked up, source: E. coli BL21 (DE3), purified (Ni-NTA, TEV cleavage, Superdex 200); not shown: His6, N-terminal, cleaved) HDPAVIHENASQPAVLVPIRLDMEIDGQKLRDAFTWNMNEKLMTPEMFSEILCDDLDLNPLTFVPAIASAIRQQIESYPTDSI | 370 ± 100 | -11.2 ± 0.4 | – |
| hSNF5^171–258 (N- and C-terminal elongated hSNF5 RPT1 domain) (domain or fragment, human, UniProt Q12824 171-258, looked up, 15N- or 13C,15N-labelled for the NMR experiments; modified pET21b vector; also called human SNF5; SNF5/INI1/BAF47; source: E. coli BL21 (DE3), purified (Ni-NTA, TEV cleavage, Superdex 200); not shown: His6, N-terminal, cleaved) HDPAVIHENASQPEVLVPIRLDMEIDGQKLRDAFTWNMNEKLMTPEMFSEILCDDLDLNPLTFVPAIASAIRQQIESYPTDSILEDQS | – | – | stoichiometry N [5]: 1 |

More lines, main results first:

| Kd [2] [nM] | dH [2] [kcal/mol] | Molecule | also measured |
| --- | --- | --- | --- |
| 300 ± 70 | -12.9 ± 0.4 | hSNF5^181–253 (domain or fragment, human, UniProt Q12824 181-253, looked up, human SNF5 (hSNF5), residues 181-253; source: E. coli BL21 (DE3), purified (Ni-NTA, TEV cleavage, Superdex 200); not shown: His6, N-terminal, cleaved) SQPEVLVPIRLDMEIDGQKLRDAFTWNMNEKLMTPEMFSEILCDDLDLNPLTFVPAIASAIRQQIESYPTDSI | – |
| 300 ± 50 | -21 ± 0.6 | hSNF5^179–253 (domain or fragment, human, UniProt Q12824 179-253, looked up, human SNF5 (hSNF5), residues 179-253; source: E. coli BL21 (DE3), purified (Ni-NTA, TEV cleavage, Superdex 200); not shown: His6, N-terminal, cleaved) NASQPEVLVPIRLDMEIDGQKLRDAFTWNMNEKLMTPEMFSEILCDDLDLNPLTFVPAIASAIRQQIESYPTDSI | – |
| 290 ± 80 | -18.7 ± 0.8 | hSNF5^183–253 (domain or fragment, human, UniProt Q12824 183-253, looked up, human SNF5 (hSNF5), residues 183-253; also called whole αN helix-deletion mutant; source: E. coli BL21 (DE3), purified (Ni-NTA, TEV cleavage, Superdex 200); not shown: His6, N-terminal, cleaved) PEVLVPIRLDMEIDGQKLRDAFTWNMNEKLMTPEMFSEILCDDLDLNPLTFVPAIASAIRQQIESYPTDSI | – |
| 110 ± 30 | -15.8 ± 0.5 | hSNF5^174–253 (domain or fragment, human, UniProt Q12824 174-253, looked up, human SNF5 (hSNF5), residues 174-253; source: E. coli BL21 (DE3), purified (Ni-NTA, TEV cleavage, Superdex 200); not shown: His6, N-terminal, cleaved) AVIHENASQPEVLVPIRLDMEIDGQKLRDAFTWNMNEKLMTPEMFSEILCDDLDLNPLTFVPAIASAIRQQIESYPTDSI | – |
